The results in this text go back to patent US20240173352A1.

Where only a bound is given, the exact number is not on record here.

Test [1] deals with HLA-A*02 (on target cells) (human). Kind of test: cell-based or functional assay.
In test [2] the target is HLA-A*02 blocker antigen on beads (human). Kind of test: cell-based or functional assay.

For “HLA-A*02 PA2.1 ScFv LIR1 inhibitor (C1765) (from UniProt Q8NHL6 399-650) (receptor)”, in test [1], the Emax shift of the CD19-CAR activator in Jurkat cells was greater than 10 fold; the inhibition of IFNγ induction in primary T cells (MSLN CAR), HeLa target cells expressing HLA-A*02 is greater than 5 fold; the inhibition of IFNγ induction in primary T cells (MSLN CAR), SiHa target cells expressing HLA-A*02 is greater than 10 fold; the shift of the CD19 CAR EMAX, NALM6 target cells is greater than 5 fold. In addition, in test [1], the shift of the EGFR CAR (CT479) EMAX, Jurkat NFAT-luciferase, HLA-A*02 transduced HeLa target cells is greater than 5 fold; the shift of the EGFR CAR EMAX, HeLa target cells is greater than 5 fold; the shift of the EGFR CAR EMAX, Jurkat NFAT-luciferase, HCT116 target cells was 1.8 fold; the shift of the EGFR CAR EMAX, SiHa target cells is greater than 4 fold. For the same substance, in test [1], the shift of the MSLN CAR EMAX, K562 target cells was greater than 5 fold and the suppression of pan HLA scFv CAR activators, HLA-A*02-positive T2 cells, E:T 1:2 was less than 25 fold. In addition, in test [2], the shift of the EGFR CAR EMAX, cell-free bead assay is greater than 9 fold and the shift of the MSLN CAR EMAX, cell-free bead assay was greater than 12 fold.
